Where a chain is given by its changes, count along the chain named.
T1: human B7-1-Fc (R&D Systems) (human, UniProt P33681 35-242)
T1 construct: not shown: Fc part of the bought fusion protein; not described
T1 sequence (looked up): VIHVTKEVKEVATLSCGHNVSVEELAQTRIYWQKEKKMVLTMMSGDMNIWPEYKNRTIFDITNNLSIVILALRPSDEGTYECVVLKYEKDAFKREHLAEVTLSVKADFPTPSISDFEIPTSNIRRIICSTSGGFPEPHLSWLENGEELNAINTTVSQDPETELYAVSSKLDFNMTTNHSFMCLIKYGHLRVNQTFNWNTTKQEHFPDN

B1: PDL1 A05 Fab-phage (Fab, V domains shown)
VH: EVQLLESGGGLVQPGGSLRLSCAASGFTFSSYAMSWVRQAPGKGLEWVSSIWKQGIVTVYDSVKGRFTISRDNSKNTLYLQMNSLRAEDTAVYYCAKSSAGFDYWGQGTLVTV
VL: DIQMTQSPSSLSASVGDRVTITCRASQSISSYLNWYQQKPGKAPKLLIYYASTLQSGVPSRFSGSGSGTDFTLTISSLQPEDFATYYCQQDNGYPSTFGQGTKVEIKR
B2: PDL1 E11 Fab-phage (Fab, V domains shown)
VH: EVQLLESGGGLVQPGGSLRLSCAASGFTFSSYAMSWVRQAPGKGLEWVSDIWKQGFATADSVKGRFTISRDNSKNTLYLQMNSLRAEDTAVYYCAKSSAGFDYWGQGTLVTVSS
VL: B1 VL
B3: PDL1 G12 Fab-phage (Fab, V domains shown)
VH: EVQLLESGGGLVQPGGSLRLSCAASGFTFSSYAMSWVRQAPGKGLEWVSSIWYQGLVTVYDSVKGRFTISRDNSKNTLYLQMNSLRAEDTAVYYCAKSSAGFDYWGQGTLVTVSS
VL: B1 VL
B4: PDL1 G09 Fab-phage (Fab, V domains shown)
VH: B3 VH with S50E, W52V, Y53A, Q54T, L56I, V57L, V59S
VL: B1 VL
B5: PDL1 D08 Fab-phage (Fab, V domains shown)
VH: B3 VH with Y53R, V57A, V59A
VL: B1 VL
B6: PDL1 H06 Fab-phage (Fab, V domains shown)
VH: B3 VH with Y53R, V57A, V59A
VL: B1 VL
B7: PDL1 G10 Fab-phage (Fab, V domains shown)
VH: B3 VH with W52G, Y53R, V57I
VL: B1 VL
B8: PDL1 C10 Fab-phage (Fab, V domains shown)
VH: B3 VH with S50D, Y53K, L56M
VL: B1 VL
B9: PDL1 D01 Fab-phage (Fab, V domains shown)
VH: B3 VH with Y53K, L56I
VL: B1 VL
B10: PDL1 C05 Fab-phage (Fab, V domains shown)
VH: B3 VH with Y53R, Q54N, L56I
VL: B1 VL

Target: T1, human B7-1-Fc (R&D Systems)
Assay: Fab-phage ELISA, antigen adsorbed
Source text: Forty seven (47) individual isolates were chosen from the final pool. […] Briefly, the antigens were adsorbed to the wells of a 96-well ELISA plate, each ligand on a separate plate. Phage were applied to correlative wells on each plate and allowed to bind. Bound phage were visualized with an anti-M13-HRP conjugate and developed with the chromogenic substrate TMB. Based on the results of the ELISA and DNA sequence, 6 unique clones with matured heavy variable CDR3 domains and 10 heavy variable CDR2 domains were chosen for further study. […] Table 4 lists the heavy variable domains encoded by the clones and SEQ ID NOs for the nucleic acid sequences and amino acid sequences of their respective heavy chains.

| Binder | binding result |
| --- | --- |
| B1 | no binding |
| B2 | no binding |
| B3 | no binding |
| B4 | no binding |
| B5 | no binding |
| B6 | no binding |
| B7 | no binding |
| B8 | no binding |
| B9 | no binding |
| B10 | no binding |

Target: T2, anti-PDL1 antibody C5H9v2
T2 construct: IgG; also called anti-PDL1 parental antibody C5H9v2
Assay: binding of antibody to peptide-displaying clones

| Binder | binding result |
| --- | --- |
| YCEVSELFVLPWCMG [masking moiety PL01] | binds |
| SCLMHPHYAHDYCYV [masking moiety PL02] | binds |
| PCHPHPYDARPYCNV [masking moiety PL10] | binds |
| PCHPHPYDAAPYCNV (differs from PL10 by one alanine) [masking moiety PL21] | binds |
| ACHPHPYDARPYCNV (differs from PL10 by one alanine) [masking moiety PL16] | binds |
| PCHPAPYDARPYCNV (differs from PL10 by one alanine) [masking moiety PL17] | binds |
| PCHPHAYDARPYCNV (differs from PL10 by one alanine) [masking moiety PL18] | binds |
| PCHAHPYDARPYCNV (differs from PL10 by one alanine) [masking moiety PL24] | binds |
| PCHPHPYAARPYCNV (differs from PL10 by one alanine) [masking moiety PL20] | binds |
| PCHPHPYDARPACNV (differs from PL10 by one alanine) [masking moiety PL22] | binds |
| PCHPHPADARPYCNV (differs from PL10 by one alanine) [masking moiety PL19] | binds |
| PCHPHPYDARPYCAV (differs from PL10 by one alanine) [masking moiety PL23] | binds |
| PCHPHPYDARAYCNV (differs from PL10 by one alanine) [masking moiety PL25] | binds |
| IACRHFMEQLPFCHH [masking moiety PL04] | binds |
| ILYCDSWGAGCLTRP [masking moiety PL06] | binds |
| PCYWHPFFAYRYCNT [masking moiety PL11] | binds |
| DGPRCFVSGECSPIG [masking moiety PL08] | binds |
| IFCHMGVVVPQCANY [masking moiety PL15] | binds |
| LCEVLMLLQHPWCMG [masking moiety PL03] | binds |
| LCYKLDYDDRSYCHI [masking moiety PL09] | binds |
| FGPRCGEASTCVPYE [masking moiety PL05] | binds |
| GIALCPSHFCQLPQT [masking moiety PL07] | binds |
| YLPCHFVPIGACNNK [masking moiety PL14] | binds |
| VCYYMDWLGRNWCSS [masking moiety PL12] | binds |
| LCDLFKLREFPYCMG [masking moiety PL13] | binds |

Target: Fab of anti-PDL1 antibody C5H9v2
Assay: binding of Fab to peptide-displaying clones

| Binder | binding result |
| --- | --- |
| YCEVSELFVLPWCMG [masking moiety PL01] | binds |
| SCLMHPHYAHDYCYV [masking moiety PL02] | binds |
| PCHPHPYDARPYCNV [masking moiety PL10] | binds |
| PCHPHPYDAAPYCNV (differs from PL10 by one alanine) [masking moiety PL21] | binds |
| ACHPHPYDARPYCNV (differs from PL10 by one alanine) [masking moiety PL16] | binds |
| PCHPAPYDARPYCNV (differs from PL10 by one alanine) [masking moiety PL17] | binds |
| PCHPHAYDARPYCNV (differs from PL10 by one alanine) [masking moiety PL18] | binds |
| PCHAHPYDARPYCNV (differs from PL10 by one alanine) [masking moiety PL24] | binds |
| PCHPHPYAARPYCNV (differs from PL10 by one alanine) [masking moiety PL20] | binds |
| PCHPHPYDARPACNV (differs from PL10 by one alanine) [masking moiety PL22] | binds |
| PCHPHPADARPYCNV (differs from PL10 by one alanine) [masking moiety PL19] | binds |
| PCHPHPYDARPYCAV (differs from PL10 by one alanine) [masking moiety PL23] | binds |
| PCHPHPYDARAYCNV (differs from PL10 by one alanine) [masking moiety PL25] | binds |
| IACRHFMEQLPFCHH [masking moiety PL04] | binds |
| ILYCDSWGAGCLTRP [masking moiety PL06] | binds |
| PCYWHPFFAYRYCNT [masking moiety PL11] | binds |
| DGPRCFVSGECSPIG [masking moiety PL08] | binds |
| IFCHMGVVVPQCANY [masking moiety PL15] | binds |
| LCEVLMLLQHPWCMG [masking moiety PL03] | binds |
| LCYKLDYDDRSYCHI [masking moiety PL09] | binds |
| FGPRCGEASTCVPYE [masking moiety PL05] | binds |
| GIALCPSHFCQLPQT [masking moiety PL07] | binds |
| YLPCHFVPIGACNNK [masking moiety PL14] | binds |
| VCYYMDWLGRNWCSS [masking moiety PL12] | binds |
| LCDLFKLREFPYCMG [masking moiety PL13] | binds |
